Assay results reported in US20080194485.

Target: prekallikrein (PK), P03952
Sequence (P03952 20-638): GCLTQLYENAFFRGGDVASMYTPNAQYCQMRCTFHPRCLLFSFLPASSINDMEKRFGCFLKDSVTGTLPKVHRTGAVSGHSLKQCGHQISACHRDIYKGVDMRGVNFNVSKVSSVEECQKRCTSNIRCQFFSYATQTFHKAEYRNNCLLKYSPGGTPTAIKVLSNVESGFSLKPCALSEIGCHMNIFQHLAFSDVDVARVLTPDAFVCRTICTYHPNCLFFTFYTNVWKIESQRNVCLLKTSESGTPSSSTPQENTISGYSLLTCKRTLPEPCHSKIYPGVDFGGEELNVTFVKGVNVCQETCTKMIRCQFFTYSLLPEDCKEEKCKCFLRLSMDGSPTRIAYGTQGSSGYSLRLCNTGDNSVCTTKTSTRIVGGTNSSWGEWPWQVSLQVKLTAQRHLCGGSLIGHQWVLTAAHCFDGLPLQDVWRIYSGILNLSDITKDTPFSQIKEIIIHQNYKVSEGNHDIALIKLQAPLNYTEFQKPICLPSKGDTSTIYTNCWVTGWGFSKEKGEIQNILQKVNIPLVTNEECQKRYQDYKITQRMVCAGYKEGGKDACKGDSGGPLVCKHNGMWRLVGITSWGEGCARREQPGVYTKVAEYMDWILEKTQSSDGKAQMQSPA

B1: recombinant PRCP51 (recombinant human prolylcarboxypeptidase, predicted molecular mass 51 kDa) (protein)
chain: KNYSVLYFQQKVDHFGFNTVKTFNQRYLVADKYWKKNGGSILFYTGNEGDIIWFCNNTGFMWDVAEELKAMLVFAEHRYYGESLPFGDNSFKDSRHLNFLTSEQALADFAELIKHLKRTIPGAENQPVIAIGGSYGGMLAAWFRMKYPHMVVGALAASAPIWQFEDLVPCGVFMKIVTTDFRKSGPHCSESIHRSWDAINRLSNTGSGLQWLTGALHLCSPLTSQDIQHLKDWISETWVNLAMVDYPYASNFLQPLPAWPIKVVCQYLKNPNVSDSLLLQNIFQALNVYYNYSGQVKCLNISETATSSLGTLGWSYQACTEVVMPFCTNGVDDMFEPHSWNLKELSDDCFQQWGVRPRPSWITTMYGGKNISSHTNIVFSNGELDPWSGGGVTKDITDTLVAVTISEGAHHLDLRTKNALDPMSVLLARSLEVRHMKNWIRDFYDSAGKQH
Q: With B1 as the protein, how does the “Km of prekallikrein activation” value read?
A: The value was “Recombinant PRCP51 activates PK with a Km and Vmax of 9 nM and 0.2 min^-1, respectively”.

Q: And the “Vmax of prekallikrein activation” value?
A: The value was “Recombinant PRCP51 activates PK with a Km and Vmax of 9 nM and 0.2 min^-1, respectively”.
